Experimental data reported in the supplement of paper PMC7877785.
± gives the uncertainty stated by the source.

Assay: self-splicing fitness, log relative to wild type (ln ratio); higher = more splicing; Tetrahymena group I intron in knt gene, E. coli kanamycin selection, DiMSum; sequences stand for … in CUCUCU…GGAGGGAAAAGUUAUCAGGCAUGCACCUGGUAGCUAGUCUUUAAACCAAUAGAUUGCAUCGGUUUAAAAGGCAAGACCGUCAAAUUGCGGGAAAGGGGUCAACAGCCGUUCAGUACCAAGUCUCAGGGGAAACUUUGAGAUGGCCUUGCAAAGGGUAUGGUAAUAAGCUGACGGACAUGGUCCUAACCACGCAGCCAAGUCCUAAGUCAACAGAUCUUCUGUUGAUAUGGAUGCAGUUCACAGACUAAAUGUCGGUCGGGGAAGAUGUAUUCUUCUCAUAAGAUAUAGUCGGACCUCUCCUUAAUGGGAGCUAGCGGAUGAAGUGAUGCAACACUGGAGCCGCUGGGAACUAAUUUGUAUGCGAAAGUAUAUUGAUUAGUUUUGGAGUACUCGUGGUCG
How it was run: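 A randomised library covering all eight P1ex-region intron nucleotides was built with the intron in the knt kanamycin-resistance gene on pET-22b(+) and held in E. coli BL21(DE3). Cells were grown overnight at 37°C or 30°C on LB agar, with or without 25 μg/mL kanamycin, plus 100 μg/mL carbenicillin, 50 μM IPTG and 0.2% rhamnose, and pooled colonies were amplicon-sequenced on an Illumina HiSeq 2500. DiMSum fitness is the error-weighted combination of wild-type-normalised replicate fold changes, kanamycin versus none.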

With UUAAAGCAAUAUUACGUGAG the “self-splicing fitness (ln)” value (30 °C) was -0.984 ± 0.063 and the “self-splicing fitness (ln)” value (37 °C) was -0.201 ± 0.1.
For AUUAAGCAAUAUUACGGCCU, the “self-splicing fitness (ln)” value (30 °C) was -0.548 ± 0.1 and the “self-splicing fitness (ln)” value (37 °C) was -0.318 ± 0.12.
In the case of GCCAAGCAAUAUUACGUCUG, the “self-splicing fitness (ln)” value (30 °C) is reported as -3.62 ± 0.19 and the “self-splicing fitness (ln)” value (37 °C) is reported as -2.02 ± 0.16.
In the case of CGACAGCAAUAUUACGGUUC, the “self-splicing fitness (ln)” value (30 °C) is reported as -2.59 ± 0.1 and the “self-splicing fitness (ln)” value (37 °C) is reported as -2.24 ± 0.13.
In the case of GCUCAGCAAUAUUACGUGGG, the “self-splicing fitness (ln)” value (30 °C) is reported as -3.65 ± 0.19 and the “self-splicing fitness (ln)” value (37 °C) is reported as -1.85 ± 0.16.
With CCUCAGCAAUAUUACGGUCU the “self-splicing fitness (ln)” value (30 °C) was -3.73 ± 0.25 and the “self-splicing fitness (ln)” value (37 °C) was -2.56 ± 0.27.
For UGCAAGCAAUAUUACGAUCU, the “self-splicing fitness (ln)” value (30 °C) was -0.477 ± 0.091 and the “self-splicing fitness (ln)” value (37 °C) was -0.822 ± 0.1.
With AAUGAGCAAUAUUACGGCCA the “self-splicing fitness (ln)” value (37 °C) was 0.411 ± 0.39.
In the case of UCCUAGCAAUAUUACGAUAG, the “self-splicing fitness (ln)” value (30 °C) is reported as -2.89 ± 0.33 and the “self-splicing fitness (ln)” value (37 °C) is reported as -2.14 ± 0.35.
For AUCCAGCAAUAUUACGGUCG, the “self-splicing fitness (ln)” value (30 °C) was -0.645 ± 0.058 and the “self-splicing fitness (ln)” value (37 °C) was 0.12 ± 0.089.
With UGUAAGCAAUAUUACGUUCA the “self-splicing fitness (ln)” value (30 °C) was -0.719 ± 0.1 and the “self-splicing fitness (ln)” value (37 °C) was -0.118 ± 0.14.
In the case of CCGGAGCAAUAUUACGUUGG, the “self-splicing fitness (ln)” value (30 °C) is reported as -3.57 ± 0.24 and the “self-splicing fitness (ln)” value (37 °C) is reported as -2.47 ± 0.26.
With UACAAGCAAUAUUACGCGAG the “self-splicing fitness (ln)” value (30 °C) was -1.62 ± 0.11 and the “self-splicing fitness (ln)” value (37 °C) was -0.536 ± 0.1.
In the case of GGCGAGCAAUAUUACGGCAU, the “self-splicing fitness (ln)” value (30 °C) is reported as -0.523 ± 0.13 and the “self-splicing fitness (ln)” value (37 °C) is reported as 0.0629 ± 0.15.
With GCACAGCAAUAUUACGUGAG the “self-splicing fitness (ln)” value (30 °C) was 0.0789 ± 0.047 and the “self-splicing fitness (ln)” value (37 °C) was 0.0342 ± 0.06.
In the case of AGAGAGCAAUAUUACGAACU, the “self-splicing fitness (ln)” value (30 °C) is reported as -1.81 ± 0.2 and the “self-splicing fitness (ln)” value (37 °C) is reported as -1.57 ± 0.2.
For UACAAGCAAUAUUACGAAUG, the “self-splicing fitness (ln)” value (30 °C) was -0.773 ± 0.065 and the “self-splicing fitness (ln)” value (37 °C) was -0.319 ± 0.086.
With UCGGAGCAAUAUUACGCUUU the “self-splicing fitness (ln)” value (37 °C) was -2.3 ± 0.49.
In the case of UGAGAGCAAUAUUACGAAUG, the “self-splicing fitness (ln)” value (30 °C) is reported as -2.97 ± 0.36 and the “self-splicing fitness (ln)” value (37 °C) is reported as -1.09 ± 0.46.
For GGGUAGCAAUAUUACGACUU, the “self-splicing fitness (ln)” value (30 °C) was -1.03 ± 0.13 and the “self-splicing fitness (ln)” value (37 °C) was 0.345 ± 0.16.
In the case of UCAUAGCAAUAUUACGGCUG, the “self-splicing fitness (ln)” value (30 °C) is reported as -1.33 ± 0.11 and the “self-splicing fitness (ln)” value (37 °C) is reported as -1.12 ± 0.14.
For ACACAGCAAUAUUACGAACU, the “self-splicing fitness (ln)” value (30 °C) was -0.798 ± 0.05 and the “self-splicing fitness (ln)” value (37 °C) was -0.493 ± 0.068.
For AGGUAGCAAUAUUACGUAUA, the “self-splicing fitness (ln)” value (30 °C) was -2.6 ± 0.023 and the “self-splicing fitness (ln)” value (37 °C) was -1.45 ± 0.036.
With CGGAAGCAAUAUUACGUAGC the “self-splicing fitness (ln)” value (30 °C) was -2.64 ± 0.38 and the “self-splicing fitness (ln)” value (37 °C) was -3.47 ± 0.46.
With GGCGAGCAAUAUUACGACGG the “self-splicing fitness (ln)” value (30 °C) was -3.28 ± 0.38 and the “self-splicing fitness (ln)” value (37 °C) was -3.37 ± 0.47.
In the case of GAAAAGCAAUAUUACGUUGU, the “self-splicing fitness (ln)” value (30 °C) is reported as -4.51 ± 0.2 and the “self-splicing fitness (ln)” value (37 °C) is reported as -2.22 ± 0.12.
For CGGCAGCAAUAUUACGGGUU, the “self-splicing fitness (ln)” value (30 °C) was -4.26 ± 0.28 and the “self-splicing fitness (ln)” value (37 °C) was -2.87 ± 0.33.
In the case of AUGGAGCAAUAUUACGUAGA, the “self-splicing fitness (ln)” value (37 °C) is reported as -2.39 ± 0.42.
For AAUGAGCAAUAUUACGGAUA, the “self-splicing fitness (ln)” value (30 °C) was -1.86 ± 0.27 and the “self-splicing fitness (ln)” value (37 °C) was -1.8 ± 0.37.
For AGAAAGCAAUAUUACGGUCG, the “self-splicing fitness (ln)” value (30 °C) was -0.278 ± 0.07 and the “self-splicing fitness (ln)” value (37 °C) was -0.0273 ± 0.092.
In the case of AAAGAGCAAUAUUACGGGCG, the “self-splicing fitness (ln)” value (30 °C) is reported as -2.3 ± 0.14 and the “self-splicing fitness (ln)” value (37 °C) is reported as -3.1 ± 0.47.
For UCAAAGCAAUAUUACGGACU, the “self-splicing fitness (ln)” value (30 °C) was -3.52 ± 0.3 and the “self-splicing fitness (ln)” value (37 °C) was -2.27 ± 0.25.
In the case of ACGAAGCAAUAUUACGGGUU, the “self-splicing fitness (ln)” value (30 °C) is reported as -3.63 ± 0.15 and the “self-splicing fitness (ln)” value (37 °C) is reported as -2.58 ± 0.14.
In the case of AAACAGCAAUAUUACGGAUA, the “self-splicing fitness (ln)” value (30 °C) is reported as -2.99 ± 0.15 and the “self-splicing fitness (ln)” value (37 °C) is reported as -1.92 ± 0.14.
With GGGGAGCAAUAUUACGCGUU the “self-splicing fitness (ln)” value (30 °C) was -2.88 ± 0.13 and the “self-splicing fitness (ln)” value (37 °C) was -1.04 ± 0.14.
For CUAGAGCAAUAUUACGCAGC, the “self-splicing fitness (ln)” value (30 °C) was -3.55 ± 0.38 and the “self-splicing fitness (ln)” value (37 °C) was -3.32 ± 0.46.
In the case of CAAAAGCAAUAUUACGGUUG, the “self-splicing fitness (ln)” value (30 °C) is reported as -1.66 ± 0.11 and the “self-splicing fitness (ln)” value (37 °C) is reported as -1.17 ± 0.14.
With CGUAAGCAAUAUUACGUAAA the “self-splicing fitness (ln)” value (30 °C) was -3.15 ± 0.24 and the “self-splicing fitness (ln)” value (37 °C) was -2.1 ± 0.22.
In the case of UUACAGCAAUAUUACGCCAG, the “self-splicing fitness (ln)” value (30 °C) is reported as -1.74 ± 0.15 and the “self-splicing fitness (ln)” value (37 °C) is reported as -1.05 ± 0.21.
With AAUAAGCAAUAUUACGGAGA the “self-splicing fitness (ln)” value (30 °C) was -2.61 ± 0.3 and the “self-splicing fitness (ln)” value (37 °C) was -1.76 ± 0.36.
With AUAGAGCAAUAUUACGCUGA the “self-splicing fitness (ln)” value (30 °C) was -1.26 ± 0.15 and the “self-splicing fitness (ln)” value (37 °C) was -1.03 ± 0.17.
For CACAAGCAAUAUUACGCCCG, the “self-splicing fitness (ln)” value (30 °C) was -0.276 ± 0.12 and the “self-splicing fitness (ln)” value (37 °C) was 0.193 ± 0.15.
For CAGUAGCAAUAUUACGGAGC, the “self-splicing fitness (ln)” value (37 °C) was -1.75 ± 0.33.
With UCUAAGCAAUAUUACGGUGA the “self-splicing fitness (ln)” value (30 °C) was -0.587 ± 0.099 and the “self-splicing fitness (ln)” value (37 °C) was -0.245 ± 0.1.
For UCCUAGCAAUAUUACGACCU, the “self-splicing fitness (ln)” value (30 °C) was -3.41 ± 0.48 and the “self-splicing fitness (ln)” value (37 °C) was -1.76 ± 0.31.
With CGACAGCAAUAUUACGUGUA the “self-splicing fitness (ln)” value (30 °C) was -3 ± 0.14 and the “self-splicing fitness (ln)” value (37 °C) was -1.59 ± 0.1.
For AAGUAGCAAUAUUACGGAAA, the “self-splicing fitness (ln)” value (30 °C) was -2.49 ± 0.3 and the “self-splicing fitness (ln)” value (37 °C) was -1.84 ± 0.24.
With ACGAAGCAAUAUUACGUGGG the “self-splicing fitness (ln)” value (30 °C) was -2.76 ± 0.16 and the “self-splicing fitness (ln)” value (37 °C) was -2.84 ± 0.17.
With UGGUAGCAAUAUUACGAUUG the “self-splicing fitness (ln)” value (30 °C) was -0.422 ± 0.05 and the “self-splicing fitness (ln)” value (37 °C) was 0.168 ± 0.073.
For CGGAAGCAAUAUUACGGAGU, the “self-splicing fitness (ln)” value (30 °C) was -4.49 ± 0.39 and the “self-splicing fitness (ln)” value (37 °C) was -2.12 ± 0.2.
In the case of CUUCAGCAAUAUUACGGUAU, the “self-splicing fitness (ln)” value (30 °C) is reported as -3.47 ± 0.35 and the “self-splicing fitness (ln)” value (37 °C) is reported as -2 ± 0.2.
For CGGGAGCAAUAUUACGCGAA, the “self-splicing fitness (ln)” value (30 °C) was -2.47 ± 0.25 and the “self-splicing fitness (ln)” value (37 °C) was -1.9 ± 0.23.
With GAGCAGCAAUAUUACGCUAU the “self-splicing fitness (ln)” value (30 °C) was -2.73 ± 0.27 and the “self-splicing fitness (ln)” value (37 °C) was -1.93 ± 0.17.
With CGCUAGCAAUAUUACGGUGA the “self-splicing fitness (ln)” value (30 °C) was -2.28 ± 0.14 and the “self-splicing fitness (ln)” value (37 °C) was -0.996 ± 0.11.
With UGUGAGCAAUAUUACGACUU the “self-splicing fitness (ln)” value (30 °C) was -2.13 ± 0.23 and the “self-splicing fitness (ln)” value (37 °C) was -2.33 ± 0.26.
In the case of AUUCAGCAAUAUUACGGGGC, the “self-splicing fitness (ln)” value (30 °C) is reported as -3.25 ± 0.3 and the “self-splicing fitness (ln)” value (37 °C) is reported as -2.99 ± 0.21.
In the case of UGUCAGCAAUAUUACGACAC, the “self-splicing fitness (ln)” value (30 °C) is reported as -3.09 ± 0.47.
In the case of CUCAAGCAAUAUUACGUCCA, the “self-splicing fitness (ln)” value (30 °C) is reported as -2.66 ± 0.32 and the “self-splicing fitness (ln)” value (37 °C) is reported as -1.51 ± 0.27.
For CUCUAGCAAUAUUACGCUUA, the “self-splicing fitness (ln)” value (30 °C) was -4 ± 0.37 and the “self-splicing fitness (ln)” value (37 °C) was -3.06 ± 0.27.
With GUGGAGCAAUAUUACGAACU the “self-splicing fitness (ln)” value (30 °C) was -0.836 ± 0.28 and the “self-splicing fitness (ln)” value (37 °C) was -1.14 ± 0.42.
With CCGAAGCAAUAUUACGAGAA the “self-splicing fitness (ln)” value (30 °C) was -2.48 ± 0.47 and the “self-splicing fitness (ln)” value (37 °C) was -1.17 ± 0.49.
